From patent US20230293647A1 (AUTOLUS, published 2023)

Tests used:
Assay in all cases: cell microarray
[1] = target: SARS-CoV-2 full length Spike expressed on cells (SARS-CoV-2, UniProt P0DTC2 14-1273)
ADGRG7 = target: T1, ADGRG7 (human, UniProt Q96K78)
T1 sequence (looked up): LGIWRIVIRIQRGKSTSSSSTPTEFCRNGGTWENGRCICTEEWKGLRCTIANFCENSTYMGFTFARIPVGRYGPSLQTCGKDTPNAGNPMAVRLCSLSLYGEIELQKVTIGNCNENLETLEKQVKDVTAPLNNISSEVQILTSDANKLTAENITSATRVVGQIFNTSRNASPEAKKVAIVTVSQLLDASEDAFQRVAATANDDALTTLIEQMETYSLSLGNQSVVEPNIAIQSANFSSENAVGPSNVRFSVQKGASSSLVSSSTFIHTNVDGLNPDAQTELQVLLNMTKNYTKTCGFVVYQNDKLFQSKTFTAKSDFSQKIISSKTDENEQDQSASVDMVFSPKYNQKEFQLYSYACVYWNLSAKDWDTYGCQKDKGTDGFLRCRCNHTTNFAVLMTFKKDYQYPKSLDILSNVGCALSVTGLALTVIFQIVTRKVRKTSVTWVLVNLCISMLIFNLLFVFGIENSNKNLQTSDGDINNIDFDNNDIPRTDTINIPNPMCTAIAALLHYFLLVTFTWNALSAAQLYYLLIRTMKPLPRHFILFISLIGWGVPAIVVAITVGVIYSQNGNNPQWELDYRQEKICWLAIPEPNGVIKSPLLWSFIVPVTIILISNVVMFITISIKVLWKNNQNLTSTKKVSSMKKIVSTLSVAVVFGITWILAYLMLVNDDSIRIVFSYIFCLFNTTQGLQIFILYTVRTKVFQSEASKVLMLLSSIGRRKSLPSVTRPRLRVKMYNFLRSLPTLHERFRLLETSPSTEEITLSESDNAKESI

PRCD = target: T2, PRCD (human, UniProt Q00LT1)
T2 sequence (looked up): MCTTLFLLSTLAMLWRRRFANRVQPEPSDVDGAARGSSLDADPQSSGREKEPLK

LGALS1 = LGALS1 (human, UniProt P09382)
LGALS1, sequence (P09382 2-135 limits assumed): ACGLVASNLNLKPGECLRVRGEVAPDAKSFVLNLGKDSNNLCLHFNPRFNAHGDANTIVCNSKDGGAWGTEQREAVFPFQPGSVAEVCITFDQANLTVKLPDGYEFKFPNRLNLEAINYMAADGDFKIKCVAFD

EGFR = EGFR (human, UniProt P00533)
TTYH2 = target: T3, TTYH2 (human, UniProt Q9BSA4)
T3 sequence (looked up): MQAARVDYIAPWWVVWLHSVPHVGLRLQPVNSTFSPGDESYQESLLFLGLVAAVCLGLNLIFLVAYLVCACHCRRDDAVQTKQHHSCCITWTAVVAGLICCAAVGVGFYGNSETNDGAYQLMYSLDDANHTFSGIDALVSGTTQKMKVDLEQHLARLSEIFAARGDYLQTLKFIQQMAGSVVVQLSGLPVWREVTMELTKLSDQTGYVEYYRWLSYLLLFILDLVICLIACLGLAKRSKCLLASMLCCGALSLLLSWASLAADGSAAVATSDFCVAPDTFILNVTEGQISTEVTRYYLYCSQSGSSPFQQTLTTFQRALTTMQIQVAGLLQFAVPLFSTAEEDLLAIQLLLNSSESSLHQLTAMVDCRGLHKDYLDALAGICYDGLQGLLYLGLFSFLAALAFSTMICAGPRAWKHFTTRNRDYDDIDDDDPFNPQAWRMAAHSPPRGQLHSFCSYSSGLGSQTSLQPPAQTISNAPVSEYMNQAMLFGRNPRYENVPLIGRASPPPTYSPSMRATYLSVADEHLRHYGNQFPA

SLC26A4 = target: T4, SLC26A4 (human, UniProt O43511)
T4 sequence (looked up): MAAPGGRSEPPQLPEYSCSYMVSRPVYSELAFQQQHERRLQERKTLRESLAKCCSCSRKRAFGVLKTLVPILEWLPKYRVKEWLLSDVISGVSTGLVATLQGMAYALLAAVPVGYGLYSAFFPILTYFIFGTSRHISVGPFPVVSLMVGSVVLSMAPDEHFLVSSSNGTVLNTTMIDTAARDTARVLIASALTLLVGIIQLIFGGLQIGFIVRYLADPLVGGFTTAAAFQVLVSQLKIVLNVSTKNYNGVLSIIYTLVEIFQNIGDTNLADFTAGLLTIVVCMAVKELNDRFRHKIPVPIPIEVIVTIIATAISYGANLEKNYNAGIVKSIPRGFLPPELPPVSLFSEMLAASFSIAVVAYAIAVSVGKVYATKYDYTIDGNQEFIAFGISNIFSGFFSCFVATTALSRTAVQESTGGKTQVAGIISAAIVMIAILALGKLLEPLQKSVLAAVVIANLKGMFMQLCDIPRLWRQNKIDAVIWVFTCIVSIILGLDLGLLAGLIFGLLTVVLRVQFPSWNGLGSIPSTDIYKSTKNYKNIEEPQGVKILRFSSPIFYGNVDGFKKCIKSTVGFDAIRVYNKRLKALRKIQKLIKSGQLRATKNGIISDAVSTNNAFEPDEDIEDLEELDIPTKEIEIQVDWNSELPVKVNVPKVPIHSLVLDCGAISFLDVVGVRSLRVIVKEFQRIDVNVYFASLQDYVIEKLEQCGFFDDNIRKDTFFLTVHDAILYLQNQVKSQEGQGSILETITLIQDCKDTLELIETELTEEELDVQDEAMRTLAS

SIGLEC14 = target: T5, SIGLEC14 (human, UniProt Q08ET2)
T5 sequence (looked up): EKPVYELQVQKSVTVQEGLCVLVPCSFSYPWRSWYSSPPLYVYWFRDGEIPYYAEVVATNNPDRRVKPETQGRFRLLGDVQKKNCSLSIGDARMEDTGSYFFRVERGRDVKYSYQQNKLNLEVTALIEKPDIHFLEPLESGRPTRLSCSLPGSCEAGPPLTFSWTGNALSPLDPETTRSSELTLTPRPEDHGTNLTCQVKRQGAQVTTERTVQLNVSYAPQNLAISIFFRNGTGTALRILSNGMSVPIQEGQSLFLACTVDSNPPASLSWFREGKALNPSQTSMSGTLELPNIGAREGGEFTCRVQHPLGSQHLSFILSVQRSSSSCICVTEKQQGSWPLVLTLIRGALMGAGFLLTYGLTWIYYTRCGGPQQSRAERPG

Measured: binding result

B1: Fc LALA-PG only construct with the ACE2 domain omitted (other)
chain: EPKSCDKTHTCPPCPAPEAAGGPSVFLFPPKPKDTLMISRTPEVTCVVVDVSHEDPEVKFNWYVDGVEVHNAKTKPREEQYNSTYRVVSVLTVLHQDWLNGKEYKCKVSNKALGAPIEKTISKAKGQPREPQVYTLPPSREEMTKNQVSLTCLVKGFYPSDIAVEWESNGQPENNYKTTPPVLDSDGSFFLYSKLTVDKSRWQQGNVFSCSVMHEALHNHYTQKSLSLSPGK
notes: also called control Fc (LALA-PG)
no binding: all assays above
